From US9433687B2, “Anti-Notch3 antibodies and antibody-drug conjugates” (Pfizer Inc., priority 2012, dated 2016) come the findings set out here.

The target of assay [1] is T1, OVCAR3 (Homo sapiens, UniProt Q9UM47).
T1 construct: Notch3 endogenously expressing cells MDA-MB-468, HCC2429 and OVCAR3; endogenous in cells; host or cells: OVCAR3
The assay can be described thus: Flow cytometry (FACS) binding, OVCAR3. To be noted: 4 μg/mL antibody. The method, then: (§1) Unconjugated anti-Notch3 antibodies, hu28 and hu75, were examined for cell surface binding activity to Notch3 expressing cell lines by flow cytometry. Fluorescence activated cell sorting (FACS) analysis was conducted according to standard procedures. Cells were rinsed in HBSS with calcium chloride and magnesium chloride (herein termed HBSS++), harvested using trypsin without EDTA and neutralized with medium containing FBS. Cells were incubated on ice for 30 minutes with 4 μg/mL anti-Notch3 antibodies, hu28 and hu75, in HBSS++containing 3% HICS (heat-inactivated calf serum). Cells were washed three times with cold HBSS++, 3% HICS buffer. Cells were incubated in allophycocyanin-conjugated AffiniPure F(ab′)2 fragment goat anti-human IgG, Fc fragment secondary antibody (Jackson ImmunoResearch Laboratories, Inc., West Grove, Pa.) at 10 μg/mL for 30 minutes on ice in the dark. Cells were washed once with cold HBSS++/3% HICS buffer. Cells were resuspended in HBSS-++/3% HICS, 25 mM HEPES, 1 mM MgCl2 and 25 μg/ml DNaseI. 7-AAD (7-Amino-Actinomycin D) was added for exclusion of nonviable cells. Live cells were analyzed on a BD FACSCalibur flow cytometer (BD Biosciences, San Jose, Calif.). Mean fluorescence intensity (MFI) from channel FL-4 was calculated with FlowJo flow cytometry analysis software (Ashland, Oreg.).
(A flow cytometer gives signals particle by particle.)

Assay [2] addresses T2, MDA-MB-468 (Homo sapiens, UniProt Q9UM47).
T2 construct: endogenous Notch3 expressing cell lines, HCC2429 and MDA-MB-468; endogenous in cells; host or cells: MDA-MB-468
The assay can be described thus: Flow cytometry (FACS) binding, MDA-MB-468. Particulars: 4 μg/mL antibody. Here is the method: as §1

Assay [3] addresses T3, MDA-MB-468/hNotch3 (Homo sapiens, UniProt Q9UM47).
T3 construct: cell lines engineered to over-express full length human Notch3 protein: MDA-MB-468/hNotch3 and U2OS/hNotch3; expressed in transfected cells; host or cells: MDA-MB-468
Description: In vitro cytotoxicity (MTS), MDA-MB-468/hNotch3. The format is cell-based. To be noted: MDAMB468/hNotch3; data not shown. Here is the method: The effects of anti-Notch3 ADCs were assessed on 1) cell lines endogenously expressing Notch3 protein: HCC2429 (lung cancer), OVCAR3 (ovarian cancer) and MDA-MB-468 (breast cancer), 2) cell lines engineered to over-express full length human Notch3 protein: MDA-MB-468/hNotch3 and U2OS/hNotch3, and 3) a negative control cell line (SW900) using an MTS cellular viability indicator (Promega, Madison, Wis.). These cell lines were cultured with increasing concentrations of anti-Notch3 ADCs comprising rat-human chimeric anti-Notch3 antibodies, ch28 and ch75, and humanized anti-Notch3 antibodies, hu28 and hu75, conjugated to various linker-payload combinations of the present invention. As a specificity control for the anti-Notch3-ADCs, non-targeted control-ADCs (huNeg8.8-ADCs or ch2H6-ADCs) were also tested on the same cell lines. After four days, viability of each culture was assessed. IC50 values were calculated by logistic non-linear regression, model #203 with XL fit v4.2 (IDBS, Guildford, Surry, UK) and presented as ng Ab/mL. The drug antibody ratio (DAR) is also provided.

Assay [4] has as its target U2OS/hNotch3 (Homo sapiens, UniProt Q9UM47). Description: Flow cytometry (FACS) binding, U2OS/hNotch3. More on the design: U-2 OS cells stably over-expressing human full length Notch3 protein on cell surface; expressed in transfected cells; host or cells: U-2 OS (human osteosarcoma). To be noted: 4 μg/mL antibody; positive control cell line. Here is the method:
as §1

In assay [5] the test system is Site 2 (S2)-cleavage of the Notch3 receptor in HCC2429 and MDA-MB-468 cells. Description: S2-cleavage assay (western blot, D11B8). To be noted: 5 μg/ml, 24 hours; FIG. 9. The format is cell-based, human. The method, then:
To confirm that binding of anti-Notch3 antibody hu75, but not hu28, to the NRR domain of Notch3 is accompanied by a decrease in S2-cleavage, western blot analysis was performed. The rabbit monoclonal anti-Notch3 antibody D11B8 (Cell Signaling Technologies) recognizes the Notch3 C-terminal fragments that are products of S1 and S2 proteolytic cleavage events. […] The anti-Notch3 antibody hu28 bound to LNR-C and HD1 domains that are located on a linear, covalently linked region of the NRR domain that is N-terminal to the S1-site. An inhibitory antibody is expected to decrease the detection of S2-cleaved Notch3 by stabilizing the NRR domain in an auto-inhibitory conformation thus preventing S2-cleavage, while a non-inhibitory antibody is not expected to have an effect on S2-cleavage.
Site 2 (S2)-cleavage of the Notch3 receptor was assessed by western blot analysis of the protein using the D11B8 (Cell Signaling Technologies) antibody which recognizes an epitope surrounding Glu2312 in the C-terminal domain. HCC2429 and MDA-MB-468 breast cancer cells were used to examine the effects of inhibitory anti-Notch3 antibody hu75 and non-inhibitory anti-Notch3 antibody hu28 on S2-cleavage. For the assay, 1-2.5×10^6 cells were plated in complete growth medium. […] Notch3 was detected with D11B8 antibody and, as a loading control, anti-GAPDH (Sigma) using standard western blot procedures.
On the technique in general: A western blot detects proteins with antibodies after separation by electrophoresis.

Chain of U2OS/hNotch3 (Q9UM47 40-2321): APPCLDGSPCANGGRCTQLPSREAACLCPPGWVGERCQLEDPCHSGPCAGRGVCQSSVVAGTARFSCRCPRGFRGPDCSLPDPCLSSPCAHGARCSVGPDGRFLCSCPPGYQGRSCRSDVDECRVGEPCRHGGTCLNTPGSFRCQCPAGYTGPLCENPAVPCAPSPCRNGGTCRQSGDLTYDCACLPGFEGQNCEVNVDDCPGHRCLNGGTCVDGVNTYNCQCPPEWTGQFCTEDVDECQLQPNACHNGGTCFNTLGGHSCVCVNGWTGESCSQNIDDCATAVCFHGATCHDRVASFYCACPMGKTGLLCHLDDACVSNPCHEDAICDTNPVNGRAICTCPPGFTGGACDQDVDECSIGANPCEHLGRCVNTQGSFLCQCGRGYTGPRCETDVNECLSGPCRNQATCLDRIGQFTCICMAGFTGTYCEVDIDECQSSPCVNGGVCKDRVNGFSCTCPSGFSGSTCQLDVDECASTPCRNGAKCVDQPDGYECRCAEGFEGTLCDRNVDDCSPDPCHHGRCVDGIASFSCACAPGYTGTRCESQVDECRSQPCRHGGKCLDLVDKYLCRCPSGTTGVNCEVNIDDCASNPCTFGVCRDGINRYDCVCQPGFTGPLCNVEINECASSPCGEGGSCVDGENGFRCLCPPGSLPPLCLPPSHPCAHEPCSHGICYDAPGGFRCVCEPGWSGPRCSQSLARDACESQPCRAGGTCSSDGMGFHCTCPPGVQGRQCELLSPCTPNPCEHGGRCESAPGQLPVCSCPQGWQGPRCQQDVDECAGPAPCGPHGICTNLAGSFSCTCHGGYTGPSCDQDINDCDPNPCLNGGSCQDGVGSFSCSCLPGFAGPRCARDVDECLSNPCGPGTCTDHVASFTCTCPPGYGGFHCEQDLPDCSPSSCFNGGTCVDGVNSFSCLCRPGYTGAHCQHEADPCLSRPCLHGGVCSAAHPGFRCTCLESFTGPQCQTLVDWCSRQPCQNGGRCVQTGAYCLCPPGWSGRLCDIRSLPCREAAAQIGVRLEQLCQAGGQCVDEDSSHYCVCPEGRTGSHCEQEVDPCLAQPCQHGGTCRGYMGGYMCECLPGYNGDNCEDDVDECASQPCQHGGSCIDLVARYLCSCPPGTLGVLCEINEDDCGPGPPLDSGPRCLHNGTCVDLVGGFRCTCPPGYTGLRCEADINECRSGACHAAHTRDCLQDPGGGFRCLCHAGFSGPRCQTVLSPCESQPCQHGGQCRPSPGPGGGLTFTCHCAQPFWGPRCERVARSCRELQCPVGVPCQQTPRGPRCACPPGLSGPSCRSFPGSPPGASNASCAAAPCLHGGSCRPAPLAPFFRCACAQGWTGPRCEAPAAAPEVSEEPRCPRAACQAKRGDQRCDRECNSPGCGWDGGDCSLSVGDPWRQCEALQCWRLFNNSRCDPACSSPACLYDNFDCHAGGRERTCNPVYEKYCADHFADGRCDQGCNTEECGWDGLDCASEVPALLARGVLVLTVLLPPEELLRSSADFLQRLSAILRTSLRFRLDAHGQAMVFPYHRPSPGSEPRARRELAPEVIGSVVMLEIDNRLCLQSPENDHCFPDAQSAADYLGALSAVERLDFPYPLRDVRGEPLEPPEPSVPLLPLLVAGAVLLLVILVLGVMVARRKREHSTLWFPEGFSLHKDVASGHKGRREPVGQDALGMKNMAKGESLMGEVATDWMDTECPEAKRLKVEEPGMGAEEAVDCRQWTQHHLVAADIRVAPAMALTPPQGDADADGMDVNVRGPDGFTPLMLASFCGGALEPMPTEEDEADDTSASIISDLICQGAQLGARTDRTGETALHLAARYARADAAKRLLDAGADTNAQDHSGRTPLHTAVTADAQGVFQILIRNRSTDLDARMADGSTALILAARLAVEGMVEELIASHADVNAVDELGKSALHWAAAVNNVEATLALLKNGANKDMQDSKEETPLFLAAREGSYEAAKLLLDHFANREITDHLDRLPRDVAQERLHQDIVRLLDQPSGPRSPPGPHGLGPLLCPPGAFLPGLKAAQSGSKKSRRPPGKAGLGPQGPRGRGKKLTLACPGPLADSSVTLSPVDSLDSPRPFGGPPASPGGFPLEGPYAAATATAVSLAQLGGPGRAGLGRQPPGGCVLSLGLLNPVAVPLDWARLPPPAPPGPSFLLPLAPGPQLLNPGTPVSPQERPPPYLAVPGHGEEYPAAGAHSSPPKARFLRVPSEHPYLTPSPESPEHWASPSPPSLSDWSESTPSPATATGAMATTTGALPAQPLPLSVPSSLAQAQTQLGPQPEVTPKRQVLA
T1 sequence (Q9UM47 40-2321): as above
T3 sequence (Q9UM47 40-2321): as above
T2 sequence (Q9UM47 40-2321): as above

B1: hu28 VH1.0/VL1.0: humanized r28 variant VH1.0/VL1.0, anti-Notch3 antibody (VH SEQ ID NO: 13, VL SEQ ID NO: 25) (antibody, V domains shown)
VH: EVQLVESGGGLVQPGGSLRLSCAASGFTFRDYGMTWVRQAPGKGLEWVAYISSGSNYIYYAEAVKGRFTISRDNAKNSLYLQMNSLRAEDTAVYYCARRGPFVLDAWGQGTLVTVSS
VL: DIQMTQSPSSLSASVGDRVTITCKASQSINRYLHWYQQKPGKAPKLLIYNANGLQTGVPSRFSGSGSGTDFTLTISSLQPEDFATYYCLQHNTWPDTFGGGTKVEIK
In the case of B1, the MFI stood at 116 in assay [1], 557 in assay [2] and 256 in assay [4]. Further, the “effect of unconjugated antibody on viability” value in assay [3] is reported as “did not affect the viability”. Further, the “detection of S1- and S2-cleaved Notch3 C-terminal fragments” value in assay [5] is “both S1- and S2-cleaved Notch3 C-terminal fragments were detected”.
